Experimental findings from patent US20230406885A1, “CYCLIC PEPTIDES FOR TRAPPING INTERLEUKIN-1 BETA” (MERCK SHARP & DOHME LLC, priority 2022, published 2023) are described below.

The chains are these.
B1: SEQ ID NO: 88 (peptide)
peptide: cyclo([PyrimAla4AcPip]W[Phe(4-COOH)]G[Pro(trans-4-NH2)][1Nal(3S-Me)]D[dNMeA]G[Bip(4'-COOH)]W[Dap][dA][hTyr])
SMILES: CC(=O)N1CCN(c2ncc(C[C@@H]3NC(=O)[C@H](CCc4ccc(O)cc4)NC(=O)[C@@H](C)NC(=O)[C@H](CN)NC(=O)[C@H](Cc4c[nH]c5ccccc45)NC(=O)[C@H](Cc4ccc(-c5ccc(C(=O)O)cc5)cc4)NC(=O)CNC(=O)[C@@H](C)N(C)C(=O)[C@H](CC(=O)O)NC(=O)[C@H]([C@@H](C)c4cccc5ccccc45)NC(=O)[C@@H]4C[C@@H](N)CN4C(=O)CNC(=O)[C@H](Cc4ccc(C(=O)O)cc4)NC(=O)[C@H](Cc4c[nH]c5ccccc45)NC3=O)cn2)CC1
B2: SEQ ID NO: 85 (peptide)
peptide: cyclo([Phe(4-(4-Ac-piperazinyl))]W[Phe(4-COOH)]G[Pro(trans-4-NH2)][Trp(4-Cl)(βS-Me)]D[dNMeA]G[Bip(4'-COOH)]WG[dDab][hTyr])
SMILES: CC(=O)N1CCN(c2ccc(C[C@@H]3NC(=O)[C@H](CCc4ccc(O)cc4)NC(=O)[C@@H](CCN)NC(=O)CNC(=O)[C@H](Cc4c[nH]c5ccccc45)NC(=O)[C@H](Cc4ccc(-c5ccc(C(=O)O)cc5)cc4)NC(=O)CNC(=O)[C@@H](C)N(C)C(=O)[C@H](CC(=O)O)NC(=O)[C@H]([C@@H](C)c4c[nH]c5cccc(Cl)c45)NC(=O)[C@@H]4C[C@@H](N)CN4C(=O)CNC(=O)[C@H](Cc4ccc(C(=O)O)cc4)NC(=O)[C@H](Cc4c[nH]c5ccccc45)NC3=O)cc2)CC1
B3: SEQ ID NO: 83 (peptide)
peptide: cyclo([Bip(4'-COOH)]W[Phe(4-COOH)]G[Prot4NHCH2CH2Ph][1Nal(3S-Me)]D[dNMeA]G[Bip(4'-COOH)]W[Dap][dA][hTyr])
SMILES: C[C@@H]1C(=O)NCC(=O)N[C@@H](Cc2ccc(-c3ccc(C(=O)O)cc3)cc2)C(=O)N[C@@H](Cc2c[nH]c3ccccc23)C(=O)N[C@@H](CN)C(=O)N[C@H](C)C(=O)N[C@@H](CCc2ccc(O)cc2)C(=O)N[C@@H](Cc2ccc(-c3ccc(C(=O)O)cc3)cc2)C(=O)N[C@@H](Cc2c[nH]c3ccccc23)C(=O)N[C@@H](Cc2ccc(C(=O)O)cc2)C(=O)NCC(=O)N2C[C@H](NCCc3ccccc3)C[C@H]2C(=O)N[C@@H]([C@@H](C)c2cccc3ccccc23)C(=O)N[C@@H](CC(=O)O)C(=O)N1C
B4: SEQ ID NO: 91 (peptide)
peptide: cyclo([TyrEtNAc]W[Phe(4-COOH)]G[Pro(trans-4-NH2)][1Nal(3S-Me)]D[dNMeA]G[Bip(4'-COOH)][Ala(indolin-1-yl)]G[dDab][h3Pal(5-CN)])
SMILES: CC(=O)NCCOc1ccc(C[C@@H]2NC(=O)[C@H](CCc3cncc(C#N)c3)NC(=O)[C@@H](CCN)NC(=O)CNC(=O)[C@H](CN3CCc4ccccc43)NC(=O)[C@H](Cc3ccc(-c4ccc(C(=O)O)cc4)cc3)NC(=O)CNC(=O)[C@@H](C)N(C)C(=O)[C@H](CC(=O)O)NC(=O)[C@H]([C@@H](C)c3cccc4ccccc34)NC(=O)[C@@H]3C[C@@H](N)CN3C(=O)CNC(=O)[C@H](Cc3ccc(C(=O)O)cc3)NC(=O)[C@H](Cc3c[nH]c4ccccc34)NC2=O)cc1
B5: SEQ ID NO: 84 (peptide)
peptide: cyclo([Bip(4'-COOH)]W[Phe(4-COOH)]G[Prot4NHEt][1Nal(3S-Me)]D[dNMeA]G[Bip(4'-COOH)]W[Dap][dA][hTyr])
SMILES: CCN[C@@H]1C[C@H]2C(=O)N[C@@H]([C@@H](C)c3cccc4ccccc34)C(=O)N[C@@H](CC(=O)O)C(=O)N(C)[C@H](C)C(=O)NCC(=O)N[C@@H](Cc3ccc(-c4ccc(C(=O)O)cc4)cc3)C(=O)N[C@@H](Cc3c[nH]c4ccccc34)C(=O)N[C@@H](CN)C(=O)N[C@H](C)C(=O)N[C@@H](CCc3ccc(O)cc3)C(=O)N[C@@H](Cc3ccc(-c4ccc(C(=O)O)cc4)cc3)C(=O)N[C@@H](Cc3c[nH]c4ccccc34)C(=O)N[C@@H](Cc3ccc(C(=O)O)cc3)C(=O)NCC(=O)N2C1
B6: SEQ ID NO: 82 (peptide)
peptide: cyclo([Bip(4'-COOH)]W[Phe(4-COOH)]G[Prot4NHBn][1Nal(3S-Me)]D[dNMeA]G[Bip(4'-COOH)]W[Dap][dA][hTyr])
SMILES: C[C@@H]1C(=O)NCC(=O)N[C@@H](Cc2ccc(-c3ccc(C(=O)O)cc3)cc2)C(=O)N[C@@H](Cc2c[nH]c3ccccc23)C(=O)N[C@@H](CN)C(=O)N[C@H](C)C(=O)N[C@@H](CCc2ccc(O)cc2)C(=O)N[C@@H](Cc2ccc(-c3ccc(C(=O)O)cc3)cc2)C(=O)N[C@@H](Cc2c[nH]c3ccccc23)C(=O)N[C@@H](Cc2ccc(C(=O)O)cc2)C(=O)NCC(=O)N2C[C@H](NCc3ccccc3)C[C@H]2C(=O)N[C@@H]([C@@H](C)c2cccc3ccccc23)C(=O)N[C@@H](CC(=O)O)C(=O)N1C
B7: SEQ ID NO: 89 (peptide)
peptide: cyclo([TyrEtNAc]W[Phe(4-COOH)]G[Pro(trans-4-NH2)][1Nal(3S-Me)]A[dNMeA]G[Bip(4'-COOH)]W[Dap][dA][hTyr])
SMILES: CC(=O)NCCOc1ccc(C[C@@H]2NC(=O)[C@H](CCc3ccc(O)cc3)NC(=O)[C@@H](C)NC(=O)[C@H](CN)NC(=O)[C@H](Cc3c[nH]c4ccccc34)NC(=O)[C@H](Cc3ccc(-c4ccc(C(=O)O)cc4)cc3)NC(=O)CNC(=O)[C@@H](C)N(C)C(=O)[C@H](C)NC(=O)[C@H]([C@@H](C)c3cccc4ccccc34)NC(=O)[C@@H]3C[C@@H](N)CN3C(=O)CNC(=O)[C@H](Cc3ccc(C(=O)O)cc3)NC(=O)[C@H](Cc3c[nH]c4ccccc34)NC2=O)cc1
B8: SEQ ID NO: 9 (peptide)
peptide: cyclo([3AzaTyrEtNAc]W[Phe(4-COOH)]G[Pro(trans-4-NH2)][Trp(βS-Me,4-F)]D[dNMeA]G[Bip(4'-COOH)]KL[dA][hTyr])
SMILES: CC(=O)NCCOc1ccc(C[C@@H]2NC(=O)[C@H](CCc3ccc(O)cc3)NC(=O)[C@@H](C)NC(=O)[C@H](CC(C)C)NC(=O)[C@H](CCCCN)NC(=O)[C@H](Cc3ccc(-c4ccc(C(=O)O)cc4)cc3)NC(=O)CNC(=O)[C@@H](C)N(C)C(=O)[C@H](CC(=O)O)NC(=O)[C@H]([C@@H](C)c3c[nH]c4cccc(F)c34)NC(=O)[C@@H]3C[C@@H](N)CN3C(=O)CNC(=O)[C@H](Cc3ccc(C(=O)O)cc3)NC(=O)[C@H](Cc3c[nH]c4ccccc34)NC2=O)cn1
B9: SEQ ID NO: 90 (peptide)
peptide: cyclo([TyrEtNAc]W[Phe(4-COOH)]G[Pro(trans-4-NH2)][1Nal(3S-Me)]D[dNMeA]G[Bip(4'-COOH)][Ala(indazol-1-yl)]G[dDab][h3Pal(5-CN)])
SMILES: CC(=O)NCCOc1ccc(C[C@@H]2NC(=O)[C@H](CCc3cncc(C#N)c3)NC(=O)[C@@H](CCN)NC(=O)CNC(=O)[C@H](Cn3ncc4ccccc43)NC(=O)[C@H](Cc3ccc(-c4ccc(C(=O)O)cc4)cc3)NC(=O)CNC(=O)[C@@H](C)N(C)C(=O)[C@H](CC(=O)O)NC(=O)[C@H]([C@@H](C)c3cccc4ccccc34)NC(=O)[C@@H]3C[C@@H](N)CN3C(=O)CNC(=O)[C@H](Cc3ccc(C(=O)O)cc3)NC(=O)[C@H](Cc3c[nH]c4ccccc34)NC2=O)cc1

*1 amine or outer side, *2 acyl side, *3 side chain or, on linkers, in order; H or OH if unused. [ ]: non-standard residue; d: D form. TyrEtNAc = L-tyrosine O-ethyl acetamide, (S)-3-(4-(2-acetamidoethoxy)phenyl)-2-aminopropanoic acid, CC(=O)NCCOc1ccc(C[C@H](N[*:1])C(=O)[*:2])cc1; PyrimAla4AcPip = (S)-3-(2-(4-acetylpiperazin-1-yl)pyrimidin-5-yl)-2-aminopropanoic acid, CC(=O)N1CCN(c2ncc(C[C@H](N[*:1])C(=O)[*:2])cn2)CC1; Prot4NHCH2CH2Ph = (2S,4R)-4-(phenethylamino)pyrrolidine-2-carboxylic acid, O=C([C@@H]1C[C@@H](N(CCc2ccccc2)[*:3])CN1[*:1])[*:2]; 3AzaTyrEtNAc = (S)-3-(6-(2-acetamidoethoxy)pyridin-3-yl)-2-aminopropanoic acid, CC(=O)NCCOc1ccc(C[C@H](N[*:1])C(=O)[*:2])cn1; Prot4NHBn = (2S,4R)-4-(benzylamino)pyrrolidine-2-carboxylic acid, O=C([C@@H]1C[C@@H](N(Cc2ccccc2)[*:3])CN1[*:1])[*:2]; Prot4NHEt = (2S,4R)-4-(ethylamino)pyrrolidine-2-carboxylic acid, CCN([C@@H]1C[C@@H](C(=O)[*:2])N([*:1])C1)[*:3]; Phe(4-(4-Ac-piperazinyl)) = CC(=O)N1CCN(c2ccc(C[C@H](N)C(=O)O)cc2)CC1; Trp(4-Cl)(βS-Me) = C[C@@H](c1c[nH]c2cccc(Cl)c12)[C@H](N)C(=O)O; Pro(trans-4-NH2) = O=C([C@@H]1C[C@@H](N[*:3])CN1[*:1])[*:2]; Trp(βS-Me,4-F) = C[C@@H](c1c[nH]c2cccc(F)c12)[C@H](N)C(=O)O; Bip(4'-COOH) = N[C@@H](Cc1ccc(-c2ccc(C(=O)O)cc2)cc1)C(=O)O; 1Nal(3S-Me) = C[C@@H](c1cccc2ccccc12)[C@H](N)C(=O)O; Ala(indazol-1-yl) = N[C@@H](Cn1ncc2ccccc21)C(=O)O; Ala(indolin-1-yl) = N[C@@H](CN1CCc2ccccc21)C(=O)O; Phe(4-COOH) = N[C@@H](Cc1ccc(C(=O)O)cc1)C(=O)O; h3Pal(5-CN) = N#Cc1cncc(CC[C@H](N)C(=O)O)c1; hTyr = N[C@@H](CCc1ccc(O)cc1)C(=O)O; dDab = NCC[C@@H](N)C(=O)O; dNMeA = CN[C@H](C)C(=O)O; Dap = NC[C@H](N)C(=O)O

The target of this assay is Recombinant human IL-1β (BioLegend 579404) (human, UniProt P01584 117-269). The assay can be described thus: cell-based or functional assay.
As for B1, the “MRC5 IC50” value stood at 0.0945 nM.

Consider B2, for which the “MRC5 IC50” value amounted to 0.0543 nM.

B3: the “MRC5 IC50” value was 0.0329 nM.

Consider B4, for which the “MRC5 IC50” value was 0.0234 nM.

With B5, the “MRC5 IC50” value turned out to be 0.0258 nM.

Turning to B6, the “MRC5 IC50” value is 0.0157 nM.

Consider B7, for which the “MRC5 IC50” value was 0.271 nM.

Turning to B8, the “MRC5 IC50” value worked out at 0.118 nM.

In the case of B9, the “MRC5 IC50” value came to 0.0507 nM.
